Measured values as given in PMC4333373, “Specific and non-specific interactions of ParB with DNA: implications for chromosome segregation” (Nucleic Acids Research, 2015).

Biological target: the molecule itself
Assay: SEC-MALS; ParB alone, no DNA; 9 or 80 uM ParB2; Superdex 200 in 50 mM Hepes-KOH, 150 mM KCl, 2.5 mM MgCl2, 2 mM beta-mercaptoethanol; monomer and dimer

B1: Bacillus subtilis ParB (natural protein, UniProt P26497 1-282, looked up)
chain: MAKGLGKGINALFNQVDLSEETVEEIKIADLRPNPYQPRKHFDDEALAELKESVLQHGILQPLIVRKSLKGYDIVAGERRFRAAKLAGLDTVPAIVRELSEALMREIALLENLQREDLSPLEEAQAYDSLLKHLDLTQEQLAKRLGKSRPHIANHLRLLTLPENIQQLIAEGTLSMGHGRTLLGLKNKNKLEPLVQKVIAEQLNVRQLEQLIQQLNQNVPRETKKKEPVKDAVLKERESYLQNYFGTTVNIKRQKKKGKIEIEFFSNEDLDRILELLSERES
notes: ParB (Spo0J) of Bacillus subtilis 168; the parB gene was amplified from genomic DNA and cloned into pET28a(+); native (untagged) protein; intact monomer has a theoretical weight of 32.2 kDa; Untagged; also called Spo0J; ParB2 (the dimer); source: E. coli BL21 (DE3), pET28a-ParB, purified (ammonium sulphate cuts, HiTrap Heparin, Mono S; some preparations also Superdex S75)
stoichiometry N: 2
